Data taken from US20160068835A1, “FLEXIBLE DISPLAY METHOD” (PEPTIDREAM INC., priority 2013, published 2016).
Values belong to the molecule of their own block, whether it stands above or below them. Where no end group is shown, it is not given here. [ ]: non-standard residue; d: D form. The star is where a group is joined. ClAB‑L‑Phe = N-[3-(2-chloroacetamido)benzoyl]-L-phenylalanine, O=C(CCl)Nc1cccc(C(=O)N[C@@H](Cc2ccccc2)C(=O)*)c1; puromycin = COc1ccc(C[C@H](N*)C(=O)N[C@H]2[C@@H](O)[C@H](n3cnc4c(N(C)C)ncnc43)O[C@@H]2CO)cc1; An21 Pu‑linker = not defined here

Experiments:
[1] = molecular target: T1, human serum albumin (HSA) (Homo sapiens, UniProt P02768); assay: Bonding assay of chemically synthesized peptides by Bio-Layer Interferometry (BLI method); type: binding; settings: 50 mM Hepes-KOH pH 7.5, 300 mM NaCl, 0.05% Tween20, 0.001% DMSO, 30° C.; peptide 1-16 nM; FIG. 8
Protocol: (§1) Next, these peptides were chemically synthesized by Fmoc solid phase synthesis, and the bond to HSA was assessed using the Bio-Layer Interferometry method (BLI method). A bonding assay was performed under the condition of 50 mM Hepes-KOH pH 7.5, 300 mM NaCl, 0.05% Tween20 and 0.001% DMSO at 30° C. Each step of the assay consists of the bond reaction of peptide to HSA being 500 s, and the dissociation reaction being 500 s. The peptide solution was created by the following dilution series (p1: 16, 12, 8, 2, 1 nM, and p2: 16, 12, 8, 4 nM).

[2] = molecular target: T1, human serum albumin (HSA); assay: Pull-down of peptides displayed as An21-type complexes with HSA-immobilized SA beads, recovered cDNA quantified by real-time PCR; type: binding; settings: An21-type display complexes; HSA-immobilized SA beads vs SA beads free of HSA; FIG. 5e
Protocol: Derivative peptides having reverse and shuffled sequences of the selected peptides (p1 and p2) and the original peptide were prepared as the An21-type complexes. […] Furthermore, since the bonding activity to HSA is lost when the amino acid sequence of the obtained cyclic peptide is reconfigured (reversed or shuffled), it could be seen that the bond of peptide to HSA is sequence-dependent (FIG. 5e).
mRNAs of p1 and p2 were synthesized from the colony PCR product. The reverse or shuffled sequences of the mRNAs of the p1 and p2 peptides were prepared as follows. The DNA template was prepared using T7SD8M2.F44 as the forward primer, and SD8No38revG5S4.R69, SD8No38ranG5S4.R69, SD8No41revG5S4.R75 or SD8No41ranG5S4.R75 as the reverse primer. An elongation PCR and transcription were performed by a method similar to the method used in preparation of T7-mRNA. mRNA was purified by phenol/chloroform extraction and 2-propanole precipitation, and dissolved in ultrapure water.
Translation (2 μL), reverse transcription (4 μL), and the quenching reaction (5.25 μL) were performed by the above method.
2 μL of the obtained solution was mixed with HSA immobilized SA beads (0.3 pmol HSA) or SA-beads. After incubation at room temperature for 10 min., the beads were washed three times with 10 μL of HBST. […] The recovered cDNA was quantified with real-time PCR.

human serum albumin [3] = molecular target: T2, human serum albumin (human, UniProt P02768 25-609); assay: pull-down of the An21-type display complex on HSA-immobilized SA beads, recovered cDNA quantified by real-time PCR
T2 construct: also called HSA
Protocol: Derivative peptides having reverse and shuffled sequences of the selected peptides (p1 and p2) and the original peptide were prepared as the An21-type complexes. The obtained complexes were subjected to pull-down using the HSA-immobilized SA beads and the SA beads free of HSA, and the recovered cDNA was quantified, which provided the result that p1 and p2 actually bond with HSA (FIG. 5e). Furthermore, since the bonding activity to HSA is lost when the amino acid sequence of the obtained cyclic peptide is reconfigured (reversed or shuffled), it could be seen that the bond of peptide to HSA is sequence-dependent (FIG. 5e).

human serum albumin [4] = molecular target: T2, human serum albumin; assay: Bio-Layer Interferometry (BLI), synthetic peptide at 16, 12, 8, 2, 1 nM, 30 C
Protocol: as §1

human serum albumin [5] = molecular target: T2, human serum albumin; assay: Bio-Layer Interferometry (BLI), synthetic peptide at 16, 12, 8, 4 nM, 30 C
Protocol: as §1

Molecule: XTYNERLFWC ([ClAB‑L‑Phe]TYNERLFWC; thioether (positions not given here); not fully specified (bridges)) [p1, X is ClAB-L-Phe, cyclized by thioether bond with Cys]
bond to HSA (BLI binding curve) [1]: bond to HSA
bond with HSA (recovered cDNA after pull-down) [2]: actually bond with HSA

Molecule: XSQWDPWAIFWC ([ClAB‑L‑Phe]SQWDPWAIFWC; thioether (positions not given here); not fully specified (bridges)) [p2, X is ClAB-L-Phe, cyclized by thioether bond with Cys]
bond to HSA (BLI binding curve) [1]: bond to HSA
bond with HSA (recovered cDNA after pull-down) [2]: actually bond with HSA

B1: Shuffled p2, displayed as An21-type complex (peptide)
peptide: [ClAB‑L‑Phe]DQSPWWWIAFCGGGGGS
modifications: thioether (positions not given here); not fully specified (C-terminus, bridges); also: C-terminal Pu-linker annealed to its mRNA/cDNA (display complex)
notes: also called No41ran
binding result (human serum albumin [3]): no binding

B5: Shuffled p1, displayed as An21-type complex (peptide)
peptide: [ClAB‑L‑Phe]RFETLNWYCGGGGGS-{puromycin-An21 Pu‑linker}
modifications: thioether (positions not given here); not fully specified (bridges); reading uncertain; also: C-terminal Pu-linker annealed to its mRNA/cDNA (display complex)
notes: also called No38ran
binding result (human serum albumin [3]): no binding

B6: p2: XSQWDPWAIFWC (X is ClAB-L-Phe), chemically synthesized cyclic peptide (peptide)
peptide: [ClAB‑L‑Phe]SQWDPWAIFWC
modifications: thioether (positions not given here); not fully specified (bridges)
notes: Made by Fmoc solid phase synthesis for the BLI assay; also called compound p2
binding result (human serum albumin [5]): binds

The remaining lines, values ahead:

binding result (human serum albumin [4]): binds
B2: p1: XTYNERLFWC (X is ClAB-L-Phe), chemically synthesized cyclic peptide (peptide)
peptide: [ClAB‑L‑Phe]TYNERLFWC
modifications: thioether (positions not given here); not fully specified (bridges)
notes: Made by Fmoc solid phase synthesis for the BLI assay; also called compound p1

binding result (human serum albumin [3]): no binding
B3: Reversed p2, displayed as An21-type complex (peptide)
peptide: [ClAB‑L‑Phe]WFIAWPDWQSCGGGGGS
modifications: thioether (positions not given here); not fully specified (C-terminus, bridges); also: Pu-linker annealed to its mRNA/cDNA (display complex)
notes: also called No41rev

binding result (human serum albumin [3]): no binding
B4: Reversed p1, displayed as An21-type complex (peptide)
peptide: [ClAB‑L‑Phe]WFLRENYTCGGGGGS-{puromycin-An21 Pu‑linker}
modifications: thioether (positions not given here); not fully specified (bridges); reading uncertain; also: Pu-linker annealed to its mRNA/cDNA (display complex)
notes: also called No38rev
